# Test results as given in the supplement of paper PMC10567573.
# B1: MIA2 (parent)
# chain: SVIEPVQESSFRSRKIAVEDENDL
# Variants of: B1
# Test: protein stability index of a GFP-peptide fusion (GPS, HEK-293T) (PSI 1-6); higher = more stable
# Settings: c terminus: a fixed tail appended
# 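Note: lentivirally expressed fusions sorted by FACS into six bins by GFP to DsRed ratio, PSI derived from sequencing read proportions per bin multiplied by bin number.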
row,Variant,protein stability index
1,SVIEPVQESTFRSRKIAVEDENDL [S10T],4.48
2,SVIEPVQESVFRSRKIAVEDENDL [S10V],5.28
3,SVIEPVQESWFRSRKIAVEDENDL [S10W],4.72
4,SVIEPVQESYFRSRKIAVEDENDL [S10Y],4.81
5,SVIEPVQESSARSRKIAVEDENDL [F11A],4.79
6,SVIEPVQESSCRSRKIAVEDENDL [F11C],4.9
7,SVIEPVQESSDRSRKIAVEDENDL [F11D],5.92
8,SVIEPVQESSERSRKIAVEDENDL [F11E],5.84
9,SVIEPVQESSGRSRKIAVEDENDL [F11G],5.28
10,SVIEPVQESSHRSRKIAVEDENDL [F11H],5.37
11,SVIEPVQESSIRSRKIAVEDENDL [F11I],5.15
12,SVIEPVQESSKRSRKIAVEDENDL [F11K],5.4
13,SVIEPVQESSLRSRKIAVEDENDL [F11L],5.46
14,SVIEPVQESSMRSRKIAVEDENDL [F11M],5.19
15,SVIEPVQESSNRSRKIAVEDENDL [F11N],5.62
16,SVIEPVQESSPRSRKIAVEDENDL [F11P],5.08
17,SVIEPVQESSQRSRKIAVEDENDL [F11Q],4.71
18,SVIEPVQESSRRSRKIAVEDENDL [F11R],5.67
19,SVIEPVQESSSRSRKIAVEDENDL [F11S],5.26
20,SVIEPVQESSTRSRKIAVEDENDL [F11T],5.86
21,SVIEPVQESSVRSRKIAVEDENDL [F11V],5.16
22,SVIEPVQESSWRSRKIAVEDENDL [F11W],5.44
23,SVIEPVQESSYRSRKIAVEDENDL [F11Y],5.26
24,SVIEPVQESSFASRKIAVEDENDL [R12A],5.81

row,Variant,protein stability index
1,SVIEPVQESSFCSRKIAVEDENDL [R12C],4.82
2,SVIEPVQESSFDSRKIAVEDENDL [R12D],5.6
3,SVIEPVQESSFESRKIAVEDENDL [R12E],5.75
4,SVIEPVQESSFFSRKIAVEDENDL [R12F],4.83
5,SVIEPVQESSFGSRKIAVEDENDL [R12G],5.53
6,SVIEPVQESSFHSRKIAVEDENDL [R12H],5.66
7,SVIEPVQESSFISRKIAVEDENDL [R12I],5.12
8,SVIEPVQESSFKSRKIAVEDENDL [R12K],5.42
9,SVIEPVQESSFLSRKIAVEDENDL [R12L],5.22
10,SVIEPVQESSFMSRKIAVEDENDL [R12M],5.41
11,SVIEPVQESSFNSRKIAVEDENDL [R12N],5.61
12,SVIEPVQESSFPSRKIAVEDENDL [R12P],6
13,SVIEPVQESSFQSRKIAVEDENDL [R12Q],5.44
14,SVIEPVQESSFSSRKIAVEDENDL [R12S],5.94
15,SVIEPVQESSFTSRKIAVEDENDL [R12T],5.46
16,SVIEPVQESSFVSRKIAVEDENDL [R12V],5.36
17,SVIEPVQESSFWSRKIAVEDENDL [R12W],4.55
18,SVIEPVQESSFYSRKIAVEDENDL [R12Y],4.98
19,SVIEPVQESSFRARKIAVEDENDL [S13A],5.65
20,SVIEPVQESSFRCRKIAVEDENDL [S13C],5.05
21,SVIEPVQESSFRDRKIAVEDENDL [S13D],5.05
22,SVIEPVQESSFRERKIAVEDENDL [S13E],5.3
23,SVIEPVQESSFRFRKIAVEDENDL [S13F],5.03
24,SVIEPVQESSFRGRKIAVEDENDL [S13G],5.44

row,Variant,protein stability index
1,SVIEPVQESSFRHRKIAVEDENDL [S13H],5.25
2,SVIEPVQESSFRIRKIAVEDENDL [S13I],5.11
3,SVIEPVQESSFRKRKIAVEDENDL [S13K],5.18
4,SVIEPVQESSFRLRKIAVEDENDL [S13L],5.19
5,SVIEPVQESSFRMRKIAVEDENDL [S13M],4.86
6,SVIEPVQESSFRNRKIAVEDENDL [S13N],5.61
7,SVIEPVQESSFRPRKIAVEDENDL [S13P],5.18
8,SVIEPVQESSFRQRKIAVEDENDL [S13Q],5.03
9,SVIEPVQESSFRRRKIAVEDENDL [S13R],5.53
10,SVIEPVQESSFRTRKIAVEDENDL [S13T],5.66
11,SVIEPVQESSFRVRKIAVEDENDL [S13V],5.23
12,SVIEPVQESSFRWRKIAVEDENDL [S13W],4.72
13,SVIEPVQESSFRYRKIAVEDENDL [S13Y],5.12
14,SVIEPVQESSFRSAKIAVEDENDL [R14A],5.53
15,SVIEPVQESSFRSCKIAVEDENDL [R14C],5.08
16,SVIEPVQESSFRSDKIAVEDENDL [R14D],5.75
17,SVIEPVQESSFRSEKIAVEDENDL [R14E],5.32
18,SVIEPVQESSFRSFKIAVEDENDL [R14F],4.39
19,SVIEPVQESSFRSGKIAVEDENDL [R14G],5.55
20,SVIEPVQESSFRSHKIAVEDENDL [R14H],5.4
21,SVIEPVQESSFRSIKIAVEDENDL [R14I],5.04
22,SVIEPVQESSFRSKKIAVEDENDL [R14K],5.67
23,SVIEPVQESSFRSLKIAVEDENDL [R14L],4.98
24,SVIEPVQESSFRSMKIAVEDENDL [R14M],5.02

row,Variant,protein stability index
1,SVIEPVQESSFRSNKIAVEDENDL [R14N],5.75
2,SVIEPVQESSFRSPKIAVEDENDL [R14P],5.4
3,SVIEPVQESSFRSQKIAVEDENDL [R14Q],5.67
4,SVIEPVQESSFRSSKIAVEDENDL [R14S],5.13
5,SVIEPVQESSFRSTKIAVEDENDL [R14T],5.31
6,SVIEPVQESSFRSVKIAVEDENDL [R14V],5.51
7,SVIEPVQESSFRSWKIAVEDENDL [R14W],4.13
8,SVIEPVQESSFRSYKIAVEDENDL [R14Y],4.42
9,SVIEPVQESSFRSRAIAVEDENDL [K15A],5.63
10,SVIEPVQESSFRSRCIAVEDENDL [K15C],5.2
11,SVIEPVQESSFRSRDIAVEDENDL [K15D],5.52
12,SVIEPVQESSFRSREIAVEDENDL [K15E],5.69
13,SVIEPVQESSFRSRFIAVEDENDL [K15F],5.03
14,SVIEPVQESSFRSRGIAVEDENDL [K15G],4.85
15,SVIEPVQESSFRSRHIAVEDENDL [K15H],5.36
16,SVIEPVQESSFRSRIIAVEDENDL [K15I],5.05
17,SVIEPVQESSFRSRLIAVEDENDL [K15L],5.14
18,SVIEPVQESSFRSRMIAVEDENDL [K15M],5.11
19,SVIEPVQESSFRSRNIAVEDENDL [K15N],5.67
20,SVIEPVQESSFRSRPIAVEDENDL [K15P],5.65
21,SVIEPVQESSFRSRQIAVEDENDL [K15Q],5.71
22,SVIEPVQESSFRSRRIAVEDENDL [K15R],5.43
